Laboratory results taken from US20240025965A1 (UNIVERSITEIT TWENTE, published 2024).
Where no end group is shown, it is not given here. membrane = cellular membrane (peptide-display support, peptide attached at its C-terminus via a stable linker); glass slide = glass slide (microarray support, peptide conjugated at its N-terminus via a PEG linker); stable linker = not defined here; PEG linker = not defined here; linker = not defined here; PEG = not defined here

Target: T1, α5β1 human recombinant protein (human, UniProt P08648 42-995; P05556 21-728)
T1 construct: Bought from R&D Systems; also called α5β1 receptor; integrin α5β1
T1 sequence (P08648 42-995 limits assumed, chain 1 of 2): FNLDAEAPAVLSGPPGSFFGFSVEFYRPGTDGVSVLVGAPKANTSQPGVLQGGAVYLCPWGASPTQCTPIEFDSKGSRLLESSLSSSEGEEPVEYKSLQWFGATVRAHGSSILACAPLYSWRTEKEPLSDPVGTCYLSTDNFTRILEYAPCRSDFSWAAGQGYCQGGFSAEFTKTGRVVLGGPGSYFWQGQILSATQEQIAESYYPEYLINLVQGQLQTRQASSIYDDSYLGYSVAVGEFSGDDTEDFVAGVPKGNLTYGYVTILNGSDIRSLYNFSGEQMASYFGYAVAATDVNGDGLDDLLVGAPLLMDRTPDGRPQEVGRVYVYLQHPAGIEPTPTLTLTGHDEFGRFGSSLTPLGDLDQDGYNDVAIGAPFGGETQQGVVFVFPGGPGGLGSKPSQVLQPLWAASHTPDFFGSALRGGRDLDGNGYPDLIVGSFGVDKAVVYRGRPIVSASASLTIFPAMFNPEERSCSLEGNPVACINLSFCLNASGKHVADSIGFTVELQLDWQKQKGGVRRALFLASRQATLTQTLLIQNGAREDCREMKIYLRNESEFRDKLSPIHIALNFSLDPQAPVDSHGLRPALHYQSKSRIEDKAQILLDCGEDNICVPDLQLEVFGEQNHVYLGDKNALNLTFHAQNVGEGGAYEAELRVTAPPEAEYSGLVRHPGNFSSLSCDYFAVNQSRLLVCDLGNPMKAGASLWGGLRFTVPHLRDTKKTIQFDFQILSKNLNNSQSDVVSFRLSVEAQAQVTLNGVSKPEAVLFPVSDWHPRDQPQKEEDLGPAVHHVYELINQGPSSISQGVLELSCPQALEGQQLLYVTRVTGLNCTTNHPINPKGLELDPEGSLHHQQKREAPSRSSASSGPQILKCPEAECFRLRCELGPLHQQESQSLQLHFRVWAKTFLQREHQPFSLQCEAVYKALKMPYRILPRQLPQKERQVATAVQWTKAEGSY
T1 sequence (P05556 21-728 limits assumed, chain 2 of 2): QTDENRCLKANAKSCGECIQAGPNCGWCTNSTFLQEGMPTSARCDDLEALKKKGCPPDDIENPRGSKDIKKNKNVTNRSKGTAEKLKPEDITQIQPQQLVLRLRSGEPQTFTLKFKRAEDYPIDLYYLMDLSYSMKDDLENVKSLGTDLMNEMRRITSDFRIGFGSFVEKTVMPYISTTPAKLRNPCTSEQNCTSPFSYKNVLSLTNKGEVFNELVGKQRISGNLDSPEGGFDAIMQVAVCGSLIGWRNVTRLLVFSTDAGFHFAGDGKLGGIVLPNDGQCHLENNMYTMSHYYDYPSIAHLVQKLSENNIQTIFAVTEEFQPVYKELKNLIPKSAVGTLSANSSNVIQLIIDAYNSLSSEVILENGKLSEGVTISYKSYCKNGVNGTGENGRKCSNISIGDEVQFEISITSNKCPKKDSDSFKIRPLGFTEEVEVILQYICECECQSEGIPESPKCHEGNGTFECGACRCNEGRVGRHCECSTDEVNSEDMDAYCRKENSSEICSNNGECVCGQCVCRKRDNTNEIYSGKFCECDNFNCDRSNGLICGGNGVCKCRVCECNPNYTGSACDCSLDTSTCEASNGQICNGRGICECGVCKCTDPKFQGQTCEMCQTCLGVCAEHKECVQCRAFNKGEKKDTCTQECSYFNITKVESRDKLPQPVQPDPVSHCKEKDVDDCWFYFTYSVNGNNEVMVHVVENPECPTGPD
Experiment: peptide microarray incubated with α5β1, anti-α5 detection
Experimental: (§1) Peptide microarray was prepared by conjugating peptides at their N-terminal to a glass slide using a PEG linker. […] For the binding studies, the peptide array was blocked with 3% BSA in TBST for 2 hours. Then the array slide was washed 5 times in TB ST and subsequently incubated with the target receptor (α5β1, 10 μg/ml dissolved in PBS) for 1 hour at 37° C. The slides were washed with TBST and then incubated with primary antibody (1 μg/ml) against ITGA5 for 1 hour at 37° C. Then slides were washed and incubated with fluorescent dye labeled secondary antibodies for 30 minutes. The slides were washed with TBST and water and then dried and scanned with a microarray scanner to detect binding of the peptides. The enlightened spots were analyzed using ImageJ software. To determine the unspecific binding, a peptide array was incubated with only primary and secondary antibodies without the receptor incubation step. Then, the signal of unspecific binding was subtracted from the total binding to calculate specific binding.
To find out the amino acids responsible for the peptide binding and the most efficient binding peptides, peptide microarrays were developed with alanine replacement and shorter peptides. In addition, a peptide having the sequence […] (SEQ ID NO:11) (AV3-Cys) was developed. For AV3 (RYYRITY (SEQ ID NO:8)), the peptide microarray was incubated with […] receptor, which was captured by anti-α5 and then fluorescent dye labeled secondary antibody. […] Replacement of T6 induced unspecific binding of the peptide to the incubating antibodies (FIG. 13).

Row | binding result | Binder
1 | no binding | {glass slide-PEG}-RYARITY (reading uncertain) [AV3 with Y3 replaced by alanine]
2 | binds | {glass slide-PEG}-RAYRITY (reading uncertain, also called AV3 with Y2 replaced by alanine)
3 | binds | {glass slide-PEG}-AYYRITY (reading uncertain, also called AV3 with R1 replaced by alanine)
4 | binds | {glass slide-PEG}-RYYRITA (reading uncertain, also called AV3 with Y7 replaced by alanine)
5 | binds | {glass slide-PEG}-RYYRATY (reading uncertain, also called AV3 with I5 replaced by alanine)
6 | binds | {glass slide-PEG}-RYYAITY (reading uncertain, also called AV3 with R4 replaced by alanine)

Target: T1, α5β1 human recombinant protein
Experiment: overlapping peptides on membrane incubated with 5 µg/ml α5β1; bound receptor transferred and detected with anti-alpha5 antibody
Experimental: Peptides were attached to their c-terminal site using stable linker. […] The peptide-displaying […] membrane was soaked in methanol for 1 minute and rinsed in Tris-buffered saline (TBS) and washed three times. Then, the membrane was blocked with 3% BSA in 0.05% TWEEN®-20 containing TBS (TBST) for 3 hours at room temperature. Then, the membrane was washed for 10 minutes with TB ST and incubated with 5 μg/ml α5β1 human recombinant protein (R&D systems) in 3% BSA in TB ST for 1 hour at room temperature and then overnight at 4° C. Subsequently, the membrane was washed three times with TB ST. Thereafter, the bound receptor to the membrane was transferred to the PVDF membrane. To achieve this, first, the PVDF membrane was soaked in methanol for 1 minute and then blocked with 5% skimmed fat milk for 2 hours. Then, the membrane was incubated with primary anti-alpha5 integrin antibody (Sigma-Aldrich) for overnight in 5% skimmed milk. The membrane was washed three times with TBST and then incubated with anti-rabbit-HRP secondary antibody (Dako), washed and developed with chemiluminescence detection kit.
The domains 9 and 10 of FN were chosen to design peptides, as these domains were reported to be responsible for binding to the α5β1 receptor, as shown with the docking experiments (Nagae et al, 2012 J. Cell Biol. 131-140). The interaction studies were performed against human recombinant integrin α5β1 receptor and the bound proteins were transferred to another membrane and ITGA5 was detected with antibodies. Many sequences appeared to bind to the α5β1 receptor from human and mouse domains, the strongest binding was obtained with 2 sequences from human FN-III domain 10 as follows.

Row | binding result | Binder
7 | binds | TTVRYYRITYGE-{stable linker-membrane} (reading uncertain)
8 | binds | SIELTNLLVRYS-{stable linker-membrane} (reading uncertain)
9 | binds | GDSPASSKPISI-{linker-membrane} (reading uncertain)
10 | binds | TNLLVRYSPVKN-{stable linker-membrane} (reading uncertain)

Target: T2, rhIntegrin α11β1 (human, UniProt Q9UKX5 23-1141; P05556 21-728, limits assumed)
T2 construct: Bought from R&D Systems; also called α11β1 receptor; ITGA11 receptor
T2 sequence (Q9UKX5 23-1141 limits assumed, chain 1 of 2): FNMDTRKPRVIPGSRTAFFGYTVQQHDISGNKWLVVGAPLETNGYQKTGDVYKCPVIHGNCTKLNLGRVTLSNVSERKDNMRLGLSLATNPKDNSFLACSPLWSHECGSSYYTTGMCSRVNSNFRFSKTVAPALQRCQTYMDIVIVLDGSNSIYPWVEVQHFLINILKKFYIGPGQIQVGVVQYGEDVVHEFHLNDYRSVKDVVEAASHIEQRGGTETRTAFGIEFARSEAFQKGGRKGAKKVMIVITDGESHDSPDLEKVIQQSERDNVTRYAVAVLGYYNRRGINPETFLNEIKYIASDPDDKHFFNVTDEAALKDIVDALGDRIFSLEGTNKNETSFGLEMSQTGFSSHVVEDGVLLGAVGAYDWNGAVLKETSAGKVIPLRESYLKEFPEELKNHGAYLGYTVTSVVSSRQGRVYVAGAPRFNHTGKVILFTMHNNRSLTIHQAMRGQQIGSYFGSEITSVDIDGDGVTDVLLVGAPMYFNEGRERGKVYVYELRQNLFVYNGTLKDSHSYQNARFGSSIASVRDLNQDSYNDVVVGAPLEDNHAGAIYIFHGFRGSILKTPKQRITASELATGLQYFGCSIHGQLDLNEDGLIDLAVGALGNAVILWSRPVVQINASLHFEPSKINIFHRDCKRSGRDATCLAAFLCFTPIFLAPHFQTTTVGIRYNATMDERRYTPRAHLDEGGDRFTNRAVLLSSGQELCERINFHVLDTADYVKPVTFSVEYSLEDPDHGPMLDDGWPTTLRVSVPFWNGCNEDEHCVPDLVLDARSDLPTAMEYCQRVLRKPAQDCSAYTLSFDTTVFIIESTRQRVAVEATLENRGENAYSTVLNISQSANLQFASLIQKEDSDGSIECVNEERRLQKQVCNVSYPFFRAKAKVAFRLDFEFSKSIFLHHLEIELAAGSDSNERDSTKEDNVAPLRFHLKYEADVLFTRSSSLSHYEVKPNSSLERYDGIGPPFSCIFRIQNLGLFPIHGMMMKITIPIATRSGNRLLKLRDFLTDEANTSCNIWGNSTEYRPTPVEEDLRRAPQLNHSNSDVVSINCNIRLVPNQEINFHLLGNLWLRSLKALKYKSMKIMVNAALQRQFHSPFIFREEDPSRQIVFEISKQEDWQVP
T2 sequence (P05556 21-728 limits assumed, chain 2 of 2): as the sequence (P05556 21-728 limits assumed, chain 2 of 2) above
Experiment: peptide microarray: peptide fixed by its N-terminus through a PEG linker, incubated with α11β1 receptor (10 µg/ml), anti-ITGA11 antibody and fluorescent secondary antibody, signal of the antibodies alone subtracted
Experimental: as §1, with “(α11β1,” for “(α5β1,”, “ITGA11” for “ITGA5”

Row | binding result | Binder
11 | binds | {glass slide-PEG}-GLTEWLRWFN (reading uncertain)
12 | no binding | {glass slide-PEG}-SGLTE (reading uncertain, chain-length variant of AXI-I (positions 1-5); fixed on the array by its N-terminus through a PEG linker)
13 | binds | {glass slide-PEG}-EWLRWFNS (reading uncertain)
14 | binds | {glass slide-PEG}-GLTEWLRWFNS (reading uncertain)
15 | binds | {glass slide-PEG linker}-TEWLRWFNS (reading uncertain)
16 | binds | {glass slide-PEG linker}-SGLTEWLRWFN (reading uncertain)
17 | binds | {glass slide-PEG linker}-SGLTEWLRWF (reading uncertain)
18 | binds | {glass slide-PEG}-AGLTEWLRWFNS (reading uncertain, Alanine at position 1 of AXI-I)
19 | binds | {glass slide-PEG}-SALTEWLRWFNS (reading uncertain, Alanine at position 2 of AXI-I)
20 | binds | {glass slide-PEG linker}-SGLTEWLRAFNS (reading uncertain, Alanine at position 9 of AXI-I)
21 | binds | {glass slide-PEG}-SGLAEWLRWFNS (reading uncertain, Alanine at position 4 of AXI-I)
22 | binds | {glass slide-PEG linker}-SGLTEWARWFNS (reading uncertain, Alanine at position 7 of AXI-I)
23 | binds | {glass slide-PEG linker}-SGLTEWLAWFNS (reading uncertain, Alanine at position 8 of AXI-I)
24 | binds | {glass slide-PEG}-SGLTAWLRWFNS (reading uncertain, Alanine at position 5 of AXI-I)
25 | binds | {glass slide-PEG linker}-SGLTEWLRWFNA (reading uncertain, Alanine at position 12 of AXI-I)
26 | binds | {glass slide-PEG}-SGATEWLRWFNS (reading uncertain, alanine-scan variant of AXI-I; fixed on the array by its N-terminus through a PEG linker; also called AXI-I with L3 replaced by alanine)
27 | binds | {glass slide-PEG linker}-SGLTEALRWFNS (reading uncertain, Alanine at position 6 of AXI-I)
28 | no binding | {glass slide-PEG linker}-SGLTEW (reading uncertain, chain-length variant of AXI-I (positions 1-6); fixed on the array by its N-terminus through a PEG linker)
29 | binds | {glass slide-PEG}-LTEWLRWF (reading uncertain)
30 | no binding | {glass slide-PEG linker}-SGLTEWLR (reading uncertain, chain-length variant of AXI-I (positions 1-8); fixed on the array by its N-terminus through a PEG linker)
31 | binds | {glass slide-PEG}-LTEWLRWFNS (reading uncertain)
32 | binds | {glass slide-PEG}-LRWFNS (reading uncertain)
33 | binds | {glass slide-PEG linker}-WLRWFNS (reading uncertain)
34 | binds | {glass slide-PEG}-RWFNS (reading uncertain, chain-length variant of AXI-I (positions 8-12); fixed on the array by its N-terminus through a PEG linker)
35 | binds | {glass slide-PEG linker}-SGLTEWLRW (reading uncertain)
